{
  "source": "paper PMC9915583",
  "about": "(bioRxiv, 2023)",
  "molecules": {"B1": {"name": "GLPR, C-terminal His-tagged (receptor)", "chain": "MLHVSGILVIGLIVVVWLVVLAPLLLRGQKPIAKAGEAFDDTRVISEGGSNIPSPRRPGLSSAQLDDEEDTDDVDDDYEIVDSPSIFRPRKEEPVEEDLDTDVELEEDIEVSLETDDYVEPAPVVEVSQEWNVEDHYELDDSYDTPLDHLHPAARARAYEDFQEHQPEQQPEVEEFDADDELTEEDVAFAQRRRGRGYYDPEADREFAASQYVRRQRTLLGLAATVVISVILGFVFGGWVWGLPAVALAATALYLMALRSQVREENALRARRIRRLRRSRMGVRNSEDLPSRLRRPGAVVLELDDESPDFEGLPTVAMPEEPYYEEPRRNIRHLGQRRVS"}, "B2": {"name": "GLP (recombinant, full-length, untagged) (natural protein)", "chain": "MRSVEQQLSIVTEAAVAPEPVRIAIAEALGLMCAEEVQASRALPGFAQAAIDGYAVRAVDVGGEKSLSQQLPVAPPEKSLPVVGEVAAGSQQPLRLQPKQAVMVHTGAPLPMLADAVLPMAWSDRGRKRVTAQRPVRSGEFVRKEGDDIQPGDIAVSAGAVLGPAQIGLLAAVGRSKVLVYPRPRMSVISVGAELVDIDRQPGLGQVYDVNSYSLAAAGREAGADVYRYGIAAGEPRRIKEIIESQMLRSEIIVITGAVGGAGSAGVRQVLNELGDIDTERVAMHPGSVQGFGLLGENKIPCFLLPSNPVASLVIFETFVRPVVRMSLGKSNAARRVVRARALNHVVSVAGRKGFIRSRLMRDAETQDYLVEALGGATGAPSHLLAGLSEANGMIRIPEDVTEIRPGDVVDVIFLAQGR"}},
  "key": {"[1]": {"biological_target": "Biotinylated His-GLPR (C. glutamicum ATCC 13032)", "assay": "BLI"}, "[2]": {"biological_target": "B2", "assay": "BLI"}, "[3]": {"biological_target": "T1, His-SUMO-FtsZ (C. glutamicum, UniProt P94337 1-442)", "T1 sequence": "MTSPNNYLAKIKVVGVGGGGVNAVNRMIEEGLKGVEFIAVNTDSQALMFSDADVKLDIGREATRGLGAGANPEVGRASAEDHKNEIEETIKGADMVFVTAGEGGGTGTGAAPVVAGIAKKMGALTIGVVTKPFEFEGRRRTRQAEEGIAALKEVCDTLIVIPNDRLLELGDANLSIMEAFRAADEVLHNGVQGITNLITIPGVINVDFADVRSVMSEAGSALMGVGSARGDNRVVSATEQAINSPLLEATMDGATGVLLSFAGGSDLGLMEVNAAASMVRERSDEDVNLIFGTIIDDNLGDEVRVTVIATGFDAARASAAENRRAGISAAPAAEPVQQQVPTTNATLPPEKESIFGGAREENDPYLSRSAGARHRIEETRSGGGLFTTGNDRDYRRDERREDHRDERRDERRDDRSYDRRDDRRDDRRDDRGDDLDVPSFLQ", "assay": "BLI"}, "[4]": {"biological_target": "the molecule itself", "assay": "crystal structure"}},
  "data": [
    {"molecule": "Wag31 (recombinant, full-length) (natural protein)", "values": [
      {"measurement": "Kd", "setting": "[1]", "value": 43.4, "unit": "µM"}
    ]},
    {"molecule": "Wag31_(1–61) (N-terminal DivIVA domain of Wag31) (domain or fragment)", "values": [
      {"measurement": "Kd", "setting": "[1]", "value": 14.9, "unit": "µM"}
    ]},
    {"molecule": "B1", "values": [
      {"measurement": "Kd", "setting": "[2]", "value": 0.0055, "unit": "µM"}
    ]},
    {"molecule": "B2", "values": [
      {"measurement": "Kd", "setting": "[3]", "value": 4.7, "unit": "µM"},
      {"measurement": "stoichiometry N", "setting": "[4]", "value": 2}
    ]}
  ]
}
